# In PMC4479705 (mBio, 2015):
# B1: human anti-FHbp Fab 7B (Fab, V domains shown)
# VH: QVQLVQSGPEVKKPGASVKISCKTSGYTFTTNALYWVRQAPGQRPEWVGWLNTGNGNSKTSQNFQGRVTITRDTSASSTYMELSSLTFEDTAVYFCARRPSGDYNTYYFDFWGQGTLVTVSS
# VL: EIVMTQSPGTLSLSPGGRGTLSCRASESVSSSYISWYQHKSGQAPRLLIYGASSRATGIPDRFSGSGSGTDFTLTISRLEPEDFAVYYRQYFSGSKGLTFGPGTKVDIK
# B2: human anti-FHbp Fab 2A (Fab, V domains shown)
# VH: QVQLQQSGSGLVKPSQTLSLTCTVSGGSINIGDRYWSWLRQSPGKGLEWIGYIDYSGDTYYNSSLKSRAAISIDTSNKQFSLKLSSVTAADTAVYYCARGSSDFSSGYFFDYWGQGTLVTVSS
# VL: ETTLTQSPATLSVSPGERAILSCRDSQSVSSNLAWYQQKPGQAPRLLIFGASTRATGIPARFSGSGSGTEFTLTISSLQSEDFAVYYCQQYNNWLSFGQGTKLEIK
# B3: human anti-FHbp Fab 3C (Fab, V domains shown)
# VH: QVQLQESGPGLVKPSETLSLTCTVSGYSITRGYYWGWIRQPPGKGLEWIGGIYHSGTTYQNPSLRSRVTFSVDTSKNQFSLKLRSVTAADTAVYYCARDNYSSNLDYWGQGTMVTVSS
# VL: EIVLTQSPGTLSLSPGERATLSCRASQSVSSSYLAWYQQKAGQAPRLLIYGASSRATGIPERFSGSGSGTDFTLTISRLEPEDFAIYYCQQYGSSRFIFGPGTKVDIK
# B4: human anti-FHbp Fab 4B (Fab, V domains shown)
# VH: EVQLVESGGGLAQPGGSLRLSCVASGSTFGSYAIYWVRQAPGKGLEWVSGISGSGTKIDYADSVKGRFTISRDISKNTLYLQMNSLRAEDTAVYYCAKLGFFDYWGQGTQVTVSS
# VL: EIVLTQSPDTLSLSPGERATLSCRASQSVSTYLFWYQKKPGQAPRLLIFDASNRATGIPVRFSGSGSGTDFTLTISSLEPEDFAVYYCQQRSNWPQTFGGGTKVEIK
# B5: human anti-FHbp Fab 5B (Fab, V domains shown)
# VH: EVQLLESGGGLVQPGGSLRLSCAASGYTFGSYAMTWVRQGPGKGLEWVSTILGSGADTYYADSVKGRFTISRDNSRNTLFMQLSSLRAEDTAVYYCAKLGYYDTWGQGTLVTVSS
# VL: EIVLTQSPATLSLSPGERATLSCRASQSIASYLYWYQQKPGQAPRLLIFDASNRATGTPARFSGSGSGTDFTLTISSLEPEDFAVYYCQQRNNWPRALTFGGGTKVEIK
# B6: human anti-FHbp Fab 6B (Fab, V domains shown)
# VH: EVQLVESGGGLVQPGGSLRLSCAASGFTFSSYAMSWVRQAPGKGLEWVSAISGSGGSSHYTDSVKGRFTISRDNSKNTLWLQMNSLRAEDTAIYYCAKTSGSYYYHYEIDVWGQGTTVTVSS
# VL: EIVLTQSPGTLSLSPGERATLSCRASQSVSSSYLAWYQQKPGQAPRLLIYGTSNRATGIPDRFSGSGSGTDFTLTVSRLEPEDFAVYYCQQYGSSPCSFGQGTKLELK
# B7: human anti-FHbp Fab 8A (Fab, V domains shown)
# VH: QVQLVESGGGLVQPGGSLRLSCVTSGFTFRSYAMTWVRQAPGKGLEWVSSISHSGGSTKYADSVKGRLTISRDDSMDTLYLQMNSLRAEDTAIYYCAKDQISYPAASPLDYWGRGTLVTVSS
# VL: EIVLTQSPGTLSLSPGERATLSCRASQSFSSFSLAWYQQKPGQAPRLLIYAPSNRATGIADRFSGSGSGTDFTLTISRLEPEDFAVYYCQQYGSSPITFGQGTRLEIK
# B8: human anti-FHbp Fab 9B (Fab, V domains shown)
# VH: EVQLVQSGAELKKPGESLKISCKASGYTFTNYWVVWVRQMPGEGLEWMGSIHPRDSDARYSLSFEGRVTFSVDKSTTTAYLQWSSLKVSDSAIYYCARLSQVSGWSPWVGPWGQGTLVTVSS
# VL: DIVMTQSPSSLSASVGDRVTITCRASQSISVSLNWYQQKPGKAPKVLIYAASRLQSGIPSRFSGSGSGSHFTLTISSLQPEDFATYYCQETYSDLMYTFGQGTKVEIK
# B9: human anti-FHbp Fab 10C (Fab, V domains shown)
# VH: QVQLVESGGGVVQPGRSLRLSCPASGFTFSRYALHWVRQAPGKGLEWVAVISFDGSFKYYADSVKGRFSISRDNFKNTLYLQMNSLRAEDTAVYYCAKDDTLHASGWGGFDYWGQGALVTVSS
# VL: EIVLTQSPATLSLSPGERATLSCRASQSVTSYLTWYQHKPGQAPRLLIYHTSYRATGIPARFSGSGSGTDFTLSITSLEPEDFAVYYCQQRSNWPFTFGPGTKVDIK
# B10: control chimeric human-mouse anti-FHbp Fab 502 (Fab, V domains shown)
# VH: EVQLQESGPGLAKPSQTLSLTCSVTGYSITSDFWNWIRKFPGNKLEYMGYISYSGSTDYNPSLKSRISITRDTSKNQYYLQLNSVTAEDTATYYCARYFGSSYAMDHWGQGTSVTVSS
# VL: DIQMTQSPASLSASVGETVTITCRASGNIHNYLAWYQQKQGKSPQLLVYTAKTLAEGVPSRFSGSGSGTQFSLKINSLQPEDFGSYYCQHFWSTPWTFGGGTKLEIK
# Columns and labels:
# [1] = target: recombinant factor H binding protein (FHbp) ID 1 (Neisseria meningitidis) (UniProt Q9JXV4); assay: SPR
# [2] = target: recombinant factor H binding protein (FHbp) ID 1 (Neisseria meningitidis serogroup B …, UniProt Q9JXV4); assay: SPR
# Chain of recombinant factor H binding protein (FHbp) ID 1 (Q9JXV4 20-274): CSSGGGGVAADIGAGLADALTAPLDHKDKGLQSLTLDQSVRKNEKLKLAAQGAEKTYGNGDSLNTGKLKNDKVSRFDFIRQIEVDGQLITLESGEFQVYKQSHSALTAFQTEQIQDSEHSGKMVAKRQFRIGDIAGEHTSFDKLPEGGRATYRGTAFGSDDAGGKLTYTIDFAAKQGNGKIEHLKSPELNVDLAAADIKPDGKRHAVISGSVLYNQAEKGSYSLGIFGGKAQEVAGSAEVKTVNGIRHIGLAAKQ
# Chain of recombinant factor H binding protein (FHbp) ID 1 (Neisseria meningitidis) (Q9JXV4 20-274): as above
Binder,Kd [1] [nM],Kd [2] [nM],koff [2] [s⁻¹],kon [2] [M⁻¹ s⁻¹]
B1,22.9,–,–,–
B2,–,115,0.061,530000
B3,–,130,0.0032,30000
B4,–,0.86,0.0006,720000
B5,–,10.6,0.0041,390000
B6,–,0.82,0.0004,500000
B7,–,1.04,0.002,2.3e+06
B8,–,0.019,4e-05,1.85e+06
B9,–,0.68,0.0005,930000
B10,–,4.8,0.0053,1.09e+06
